Here are results for 18 sequences from the DeepSol protein solubility set.

This data set can be described thus: soluble on expression in E. coli; label from the status in PepcDB or PDB records.
“MTDYAHKMSLDLRMIDLERYSDHIDNKASHCAKMLNDYYQKFDAQKGTQFVFSDLGTYKPGGEFNVYSEIKRKLVEDYHIPSHEVRFIQECKNEKAKKAMVDAMNRGDIRIIFGSTSMLGTGVNAQQRAVAIHHLDTPWRPSDLEQRNGRAVRKGNMIAKEFADNKVDVIIYAVERSLDSYKFNLLHNKQLFINQLKTNTLGSRTIDEGSMDEDGGMNFSEYVAVLSGNTNLLEKAKLDKKIATLESERKNFLRERDTATGKLAEIDSSVSFHSDKIKEAKEDLACFEKRVERDAEGLPINKLTIKGVEGSTDIKVIAARLQEIEEKARTKGEYNKIGEIYGFSIMVKTENSSKELFDCSSNRFFVKGQESIYYTYNNGKLASDPKLACQNFINALERIPKVIESHEKEKEKVSANKEVYMTIAGGSWKKEDELRSLKGQAAELDRKIALTLAPPEEEKETEEEKQVQEHGISGKEPIQETRYSAEPISHKQAEKTPPSEQVTPPPTRQPRSNEPGGYIETQMEIG”: the “soluble on expression in E. coli” value is on record as “not soluble”.

For “MTDYDLAKETAAWLNKQLQIRPVLGIVCGSGLGKIGDSLETSITVAYSDIPNFPVGSVKGHAGSLIFGSVNGVSCVCMKGRFHLYEGHTAARATFPMRVFKALGVKIVVLTNAAGGLNPSYRPGDFMVVRDHINLPGLAGANPLTGPNDDTEGERFPSMTSVYDKTLRKYAISAARELGMSYATHEGVYCCVNGPSFETPAECKILRLMGSDAVGMSTAPETIVAKHGGMRCLAVSLISNVIASNCETPAEPTHEEVLRAGEEASARMTALVKLVIEKIRGELPR”, the “soluble on expression in E. coli” value is “soluble”.

For “MTEAQRHQILLEMLAQLGFVTVEKVVERLGISPATARRDINKLDESGKLKKVRNGAEAITQQRPRWTPMNLHQAQNHDEKVRIAKAASQLVNPGESVVINCGSTAFLLGREMCGKPVQIITNYLPLANYLIDQEHDSVIIMGGQYNKSQSITLSPQGSENSLYAGHWMFTSGKGLTAEGLYKTDMLTAMAEQKMLSVVGKLVVLVDSSKIGERAGMLFSRADQIDMLITGKNANPEILQQLEAQGVSILRVLEHHHHHH”, the “soluble on expression in E. coli” value is given as “not soluble”.

Take “MTEDGVMKIDASTSTIKEPEPADCVILPTHTNEQVVYYKSWIAFGDNPNYLTYNRDLGYADWYGIVDCSDSPPTGPGVYKAFIYVNDLNYQESGNPLFKVTGRLKFLANKDTSDTMMKLEIFEQNRLEELRLSPKKMSDSQVIAIILFDNEETNSAICYSEQLESSIKVHLPVGSPAKAGQLILFTEYNYENDTYFPDPRPDAIEYRECEMTRIENGELLISAKAACSSIETHITYPQSVAFADTFGKVNVAAESMERGVTYRVELAINIIDSEANNVPLFKISDIGEKLTGEENEAFLRKLNDFEELQGTWEDWTPEEIAVELEPVAAAEEPADPEVEEAKIEENGVNDESLTQSESDSVFLPQIESSASSEETMSESNSAENSEKPKKTFGRMPQSLSESSSSTISSSKVGVDHSVIVLNVDNDECVGFETTQLKLMTICTAGVTVPLRPYGIFQFIAAGNNYGKTSIQTQSARVSECEGAVFSSDDVPKISANVIFSSNPKHKSYNKEVGVSDRYGFVEIPRITGDFEFGTVYSTQITMVQYGDPLKACFKAVAPLKRQFIDDLDHYLQVMGKYEDNIYQLSRKNGLGAKSISRLPNEPRNGSKHGSTKRFTTPHVTGLVVDMEKRGNYFGCVWTCFGDVVFKSTPTFSQNGGYPSVGDLVNIRVEILSPGTKDQKNLGASMTEKPASLSTTVIWRNNGFIVKAYLIMKPEKLIYSEDNNRFYEHDQLGIVVADSSIYGSDNEQSKVFEFERLRNPITLGFTTNLMNKCYWAARLPMIHREPSPPEPINKYNDENVYDDFQKGGPQSVNSYRSDRQYQEKPPMQYQSYHDPADTISIHSQDNHRPMETRSNAGTSVSSVDRKEVGVVMKKVDKNTQIVYLSGQKAAAIHHWNTHSQSTIVGNSYIFMYRPIEVHKATHYAPFEITQVVEILNTENHGRVDRSEFSSLFTFDLCNVDQRYVERLAFGEALVLRSNDVGHVVMASNVKTPLNPSMTAVEVCQTYKGKRESENLVGYCRLVYGKVPREIVDGHFSDQFVSAYYFELHEILATSNAYIVRNENLDRRNLRGNTIEEVRDDISIQKRIAHMNFGQNEQQQQQSSLSSRGPTRPYSPVGSYQSSHQNFDNRSAAHNGDGRSTSQSHHSAGGSMNHQNFYQPPVYQSSSSQQSYQPRYNGAPSGPLPPPSSQSSFNGAPAPPHYSEMSNDYNRMVRKLAELTDTAAQMIINNDIRQQIKNISPDLLDDLERNIDACQREKRHYYEKYGN”: the “soluble on expression in E. coli” value is “not soluble”.

Consider “MTEDRLSAEDKKFLEVERALKEAALNPLRHATEELFGDFLKMENITEICYNGNKVVWVLKNNGEWQPFDVRDRKAFSLSRLMHFARCCASFKKKTIDNYENPILSSNLANGERVQIVLSPVTVNDETISISIRIPSKTTYPHSFFEEQGFYNLLDNKEQAISAIKDGIAIGKNVIVCGGTGSGKTTYIKSIMEFIPKEERIISIEDTEEIVFKHHKNYTQLFFGGNITSADCLKSCLRMRPDRIILGELRSSEAYDFYNVLCSGHKGTLTTLHAGSSEEAFIRLANMSSSNSAARNIKFESLIEGFKDLIDMIVHINHHKQCDEFYIKHR”, for which the “soluble on expression in E. coli” value was “soluble”.

Consider “MTEEIVELVLRERISPLLRSHGGDLSLSQIKDKTVFVRFSGACRFCPAAHETVEKIVQAMIREYFKDDNIDVILENSVSDDLLEQAKNILRKPK”, for which the “soluble on expression in E. coli” value is reported as “not soluble”.

As to “MTEHKSGFVSIIGRPNVGKSTFVNRVIGHKIAIMSDKAQTTRNKIQGVMTRDDAQIIFIDTPGIHKPKHKLGDYMMKVAKNTLSEIDAIMFMVNANEEIGRGDEYIIEMLKNVKTPVFLVLNKIDLVHPDELMPKIEEYQSYMDFTEIVPISALEGLNVDHFIDVLKTYLPEGPKYYPDDQISDHPEQFVVGEIIREKILHLTSEEIPHAIGVNVDRMVKESEDRVHIEATIYVERDSQKGIVIGKGGKKLKEVGKRARRDIEMLLGSKVYLELWVKVQRDWRNKVNFIRQIGYVEDQD”, the “soluble on expression in E. coli” value was “not soluble”.

Regarding “MTEIQTIRKKVEQQITSLQNETDEIAEFNQAKVLDAFQENKVSDFHFNPSTGYGYDDEGRDTLERVYASVFKTEAALVRPQIISGTHAISTVLFGILRPGDELLYITGEPYDTLEEIVGIRSEGQGSLKDFQIGYDAVPLLPNGEIDYPAVSKKISANTKMIGIQRSRGYADRPSFTIEKIKEMVTFVKNINPNIIVFVDNCYGEFVERIEPTEVGADIIAGSLIKNPGGGLAKTGGYIAGRNTLVDLCGYRLTTPGIGREAGASLYSLLEMYQGFFLAPHVTAQAIKGARFTAAMLAEFGVEADPLWDAKRTDLIQSVSFHSKDKMIAFAQAIQAASPVNAHVLPIGAYMPGYEDDVIMAAGTFIQGASLELTADGPIREPYQLYVQGGLTYEHVKIAVTRAIENSLLEHHHHHH”, the “soluble on expression in E. coli” value is given as “soluble”.

Take “MTEKTIEFEGIEPVIIFGPYDSYLKKVREAFPDIRINARGAKITIGGDEPDLTAIEKIFREIIFLADQHGEVLENDVNALVSLALSPVSHPSAALSGDKDVIVETKDYVVKAKTDGQRRMVAEAAGNDIVFAIGPAGTGKTYTAVAIAVAAWKAKKIKRIVLARPAVEAGESLGFLPGDLAQKIDPYLRPLYDALQDMLTAEKLKFLTERRVIEIVPLAYMRGRTLNNSFIILDEAQNASSKQMMMCLTRLGVNSKAIITGDVTQVDLPKEMESGLMNAQKILKGIKGISFVFLDKSDVVRHRLVKDIINAYEHHEEGLRKGAPKEAEL”: the “soluble on expression in E. coli” value was “not soluble”.

With “MTENLTVQPERLGVLASHHDNAAVDASSGVEAAAGLGESVAITHGPYCSQFNDTLNVYLTAHNALGSSLHTAGVDLAKSLRIAAKIYSEADEAWRKAIDGLFT”, the “soluble on expression in E. coli” value is listed as “soluble”.

For “MTEPRSYTIEEIASLLKVSKLTVYDLVKKGKLPAFRVGRQMRITADDLRRFIAGQKGEASTVFSAVSRPTETAFRPIIISGQDMALDLLGVHLEKGGPYQSLRTYTSSLNGLIALYKGQCDIVSVHLFDGQTGEYNRPYVEKLLTGHAYIMVNLMRRPIGFYVPKGNPRGIHTWSDLGRSDVVIVNREKGAGARVLLDEQLRLHGLSPSAIRGYEREETSHLSVASAVAAGLADVGIGTEKVARMAGVEFIPLMNEQYDVVMLRTPENESLIASVLDVLRSDSFRAELEALGGYDVSQTGRIMAEYG”, the “soluble on expression in E. coli” value was “not soluble”.

On to “MTEQTSPESLTDGAHSKTDSAWPLACNLEPRLVSRGRWQTTQWMLHGFSLTPEAQSQYVATLHLYRDERTDYRFNLSSQAPKLFLVAEDPIEDQPLKVVQLTASQAVASRYMDSDYLVLSADMPLPVQALMEAYIGRHGELLEIRRKKREGAGRSCGN”, for which the “soluble on expression in E. coli” value was “not soluble”.

In the case of “MTETKDKQLSRIVLKGFKSIAKCDLEISRVNILIGANGAGKSNFIGFFRMVGQLVEENLQVFVSRQGSPDALLHFGRKTTEHLEFQLYFGNNGYFATLEPTQDNRLMFARESFWWNMSGEHEIGRGHFETKVLTSTRTGIDEYVLSAMQQWRVYHFHDTSESAYIKQPHGINDNAYLRPDARNLASFLYLLRNSYPASYQRIVKTIRLVAPFFGDFYLRPAPQNKEVIELEWFERGQDIPFKAYLLSDGTLRFMCLATVFLQPEDLQPETILVDEPELGLHPYAITVLASLMRTASKQVIVSTQSIELLNQFEAKDVIVVDRSEGSSYLRRLNQGDRIHFTGYSLLEHHHHHH”, the “soluble on expression in E. coli” value is “soluble”.

Regarding “MTEVAKGVATHQRLVALLTQENARYRVVNHEAVGKCEAVSEIRGTALGQGAKALVCKVKGNGVNQHVLAILAADQQADLSQLASHLGGLRASLASPAEVDMLTGCVFGAIPPFSFHPNLKLVADPLLFERFDEIAFNAGLLEKSVIMNTQDYLRIARPELAVFRRFQSSPTA”, the “soluble on expression in E. coli” value is “not soluble”.

“MTFQKHVAHTQPAKLATTPSPPGTATTPSLMSEDDDHRTITESQEKRRSWLERLSAAFSGDPHTLDDLMVILRSAEHHGIIATDTLRMMEGAIAIADLTVGDVMVPRSQMVSLPVESDLQTITKQMVESGHSRFPVHGENKDEVLGILLAKDLLRGVSANHTITNVHELLRPVGMIPESKKLNVLLKEFRLSHNHMAIVVDEYGGVAGLVTIEDILEQIVGDIDDEHDETEDQTNMIAIQADGCYIVDALTPIEDFNERFNAEFPDDDYDTIGGLVTEAIGHLPETGDELTIGRFAFRVAKANARRIHILHVTVLPPNEQNTA”: the “soluble on expression in E. coli” value was “not soluble”.

As to “MTFRGPSPPRFGHSMDLPAYAIEAEGLYKTYAGTKTSPEKRALNGIDLKIPRGSIFGLLGPNGAGKSTFINILAGLVRKSSGTVRIWGRDIDQRPRDARAAIGVVPQELAADVFFTPRESLEVQAGFYGVPKSERRTDELLNALGLGDKAGAYVRQLSGGMKRRLMVAKAMVHQPPVLILDEPTAGVDVELRRQLWQYVTSLNELGVTIVLTTHYLEEAQELCDEIAIINRGEVVACEPTAKLLSRMDSRNVVVTPESPVTAAPVLEGFDTKLRSGGAFSVSYRTGQSSVEQVLAAVRASGLHIKDIATEDPDLEDVFVALTYGDPNAADPTKDLEHHHHHH”, the “soluble on expression in E. coli” value was “not soluble”.

For the sequence “MTGMSERERQVMKKLKEVVDKQRDEIRAKDRELGLKNEDVEALQQQQTRLMKINHDLRHRVTVVEAQGKALIEQKVELEADLQTKEQEMGSLRAELGKLRERLQGEHSQNGEEEPETEPVGEESISDAEKVAMDLKDPNRPRFTLQELRDVLHERNELKSKVFLLQEELAYYKSEEMEEENRIPQPPPIAHPRTSPQPESGIKRLFSFFSRDKKRLANTQRNVHIQESFGQWANTHRDDGYTEQGQEALQHL”, the “soluble on expression in E. coli” value is reported as “not soluble”.

For the sequence “MTGNAKLIDRVSAINWNRLQDEKDAEVWDRLTGNFWLPEKVPVSNDIPSWGTLTAGEKQLTMRVFTGLTMLDTIQGTVGAVSLIPDALTPHEEAVLTNIAFMESVHAKSYSQIFSTLCSTAEIDDAFRWSEENRNLQRKAEIVLQSYRGDEPLKRKVASTLLESFLFYSGFYLPMYWSSRAKLTNTADMIRLIIRDEAVHGYYIGYKFQRGLALVDDVTRAELKDYTYELLFELYDNEVEYTQDLYDEVGLTEDVKKFLRYNANKALMNLGYEALFPRDETDVNPAILSALSPNAD”, the “soluble on expression in E. coli” value is “soluble”.
